Test [1] deals with non-polymerising (NP) fibrin (UniProt P02671). Briefly: SPR; NP-fibrinogen immobilised, then converted to fibrin with thrombin; GPVI dimer as analyte (additional SPR experiments in the supplemental methods).
For test [2], the target named is recombinant non-polymerising (NP) fibrinogen (UniProt P02671). The test is described as above.
In test [3] the target is recombinant fibrinogen αC fragment, C-terminal globular domain (Aα 368-610). Briefly: SPR; biotinylated αC fragments Aα 221-391 (80 RU), 368-610 (120 RU), 221-610 (180 RU) on SA chip; dimeric GPVI as analyte up to 20 μM; 25 °C; 1:1 Langmuir. In general terms: Surface plasmon resonance follows binding to a sensor surface in real time, without labels.
In test [4] the target is recombinant fibrinogen αC fragment, full-length (Aα 221-610). The description is as above.
Test [5] deals with dimeric GPVI (GPVI extracellular domain fused by IgG-Fc) (UniProt Q9HCN6). Briefly: MST; CRP-XL titrated into FITC-labelled GPVI monomer or dimer; read-out is the fall of the initial fluorescence (quenching); 1:1 model; hypothetical KD on the monomeric-equivalent molar concentration of CRP-XL.
Test [6] concerns the target monomeric GPVI (His-tagged GPVI extracellular domain) (UniProt Q9HCN6). The description is as above.
In test [7] the target is T1, dimeric GPVI (GPVI extracellular domain fused by IgG-Fc), Q9HCN6.
T1 chain: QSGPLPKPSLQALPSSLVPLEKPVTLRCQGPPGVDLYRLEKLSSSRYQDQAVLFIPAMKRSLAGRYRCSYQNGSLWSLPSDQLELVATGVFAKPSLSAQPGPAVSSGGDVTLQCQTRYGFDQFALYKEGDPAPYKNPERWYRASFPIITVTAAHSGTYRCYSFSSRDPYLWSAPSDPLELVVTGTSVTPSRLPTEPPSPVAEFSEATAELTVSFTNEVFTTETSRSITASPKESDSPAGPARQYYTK
Nature of the test: SPR; monomeric and dimeric GPVI immobilised as ligands; X-, D-, E-fragment or D-dimer as analytes up to 40 μM; 1:1 Langmuir.

For test [8], the target named is T1, dimeric GPVI (GPVI extracellular domain …). Nature of the test: MST; fibrin(ogen) or fragments titrated into FITC-labelled GPVI monomer or dimer (10 μl of 50 nM mixed 1:1); 20 mM HEPES pH 7.5, 50 mM NaCl; 23 °C; 1:1 model.
Test [9] has as its target T2, dimeric GPVI (GPVI extracellular domain fused by IgG-Fc) (UniProt Q9HCN6 21-267, FITC label (in MST); biotin via NHS-LC-biotin (when immobilised in SPR)).
T2 sequence (looked up): T1 chain
Nature of the test: SPR; monomeric and dimeric GPVI immobilised as ligands; X-, D-, E-fragment or D-dimer as analytes up to 40 μM; 1:1 Langmuir. The settings on record: both partners purified.

The target of test [10] is T2, dimeric GPVI (GPVI extracellular domain …). Briefly: MST; fibrin(ogen) or fragments titrated into FITC-labelled GPVI monomer or dimer (10 μl of 50 nM mixed 1:1); 20 mM HEPES pH 7.5, 50 mM NaCl; 23 °C; 1:1 model. The conditions noted are these: both partners purified.
The target of test [11] is T3, monomeric GPVI (His-tagged GPVI extracellular domain), Q9HCN6.
T3 chain: T1 chain
Briefly: SPR; monomeric and dimeric GPVI immobilised as ligands; X-, D-, E-fragment or D-dimer as analytes up to 40 μM; 1:1 Langmuir.

As to “dimeric GPVI (GPVI extracellular domain fused by IgG-Fc) (from UniProt Q9HCN6 21-267) (Fc fusion)”, the Kd (usually a measure of binding affinity in units of concentration) turned out to be 0.086 µM in [1], 0.127 µM in test [2], 2.3 µM in test [3] and 0.604 µM in test [4].

Take “cross linked collagen-related peptide (CRP-XL)”: the Kd in test [5] stood at 0.603 µM; in test [6], 5 µM.

B1: fibrinogen D-fragment (domain or fragment)
chain 1: VSEDLRSRIEVLKRKVIEKVQHIQLLQKNVRAQLVDMKRLEVDIDIKIRSCRGSCSRALAREVDLKDYEDQQKQLEQVIAKDLLPSR
chain 2: DNENVVNEYSSELEKHQLYIDETVNSNIPTNLRVLRSILENLRSKIQKLESDVSAQMEYCRTPCTVSCNIPVVSGKECEEIIRKGGETSEMYLIQPDSSVKPYRVYCDMNTENGGWTVIQNRQDGSVDFGRKWDPYKQGFGNVATNTDGKNYCGLPGEYWLGNDKISQLTRMGPTELLIEMEDWKGDKVKAHYGGFTVQNEANKYQISVNKYRGTAGNALMDGASQLMGENRTMTIHNGMFFSTYDRDNDGWLTSDPRKQCSKEDGGGWWYNRCHAANPNGRYYWGGQYTWDMAKHGTDDGVVWMNWKGSWYSMRKMSMKIRPFFPQQ
chain 3: KMLEEIMKYEASILTHDSSIRYLQEIYNSNNQKIVNLKEKVAQLEAQCQEPCKDTVQIHDITGKDCQDIANKGAKQSGLYFIKPLKANQQFLVYCEIDGSGNGWTVFQKRLDGSVDFKKNWIQYKEGFGHLSPTGTTEFWLGNEKIHLISTQSAIPYALRVELEDWNGRTSTADYAMFKVGPEADKYRLTYAYFAGGDAGDAFDGFDFGDDPSDKFFTSHNGMQFSTWDNDNDKFEGNCAEQDGSGWWMNKCHAGHLNGVYYQGGTYSKASTPNGYDNGIIWATWKTRWYSMKKTTMKIIPFNRLTIGEGQQHHLGGAK
modifications: not checked
Take B1: the dissociation constant Kd in test [7] was 26 µM; in test [8] it was over 20 µM.

B2: D-dimer (degradation product of FXIIIa cross-linked fibrin) (domain or fragment)
chain 1: B1 chain 1
chain 2: B1 chain 2
chain 3: B1 chain 3
modifications: cross-linked by FXIIIa (chain and residues not stated)
With B2, the Kd is 28 µM in test [9] and over 20 µM in test [10].

B3: fibrinogen X-fragment (domain or fragment)
chain 1: ADSGEGDFLAEGGGVRGPRVVERHQSACKDSDWPFCSDEDWNYKCPSGCRMKGLIDEVNQDFTNRINKLKNSLFEYQKNNKDSHSLTTNIMEILRGDFSSANNRDNTYNRVSEDLRSRIEVLKRKVIEKVQHIQLLQKNVRAQLVDMKRLEVDIDIKIRSCRGSCSRALAREVDLKDYEDQQKQLEQVIAKDLLPSRDRQHLPLIKMKPVPDLVPGNFK
chain 2: QGVNDNEEGFFSARGHRPLDKKREEAPSLRPAPPPISGGGYRARPAKAAATQKKVERKAPDAGGCLHADPDLGVLCPTGCQLQEALLQQERPIRNSVDELNNNVEAVSQTSSSSFQYMYLLKDLWQKRQKQVKDNENVVNEYSSELEKHQLYIDETVNSNIPTNLRVLRSILENLRSKIQKLESDVSAQMEYCRTPCTVSCNIPVVSGKECEEIIRKGGETSEMYLIQPDSSVKPYRVYCDMNTENGGWTVIQNRQDGSVDFGRKWDPYKQGFGNVATNTDGKNYCGLPGEYWLGNDKISQLTRMGPTELLIEMEDWKGDKVKAHYGGFTVQNEANKYQISVNKYRGTAGNALMDGASQLMGENRTMTIHNGMFFSTYDRDNDGWLTSDPRKQCSKEDGGGWWYNRCHAANPNGRYYWGGQYTWDMAKHGTDDGVVWMNWKGSWYSMRKMSMKIRPFFPQQ
chain 3: YVATRDNCCILDERFGSYCPTTCGIADFLSTYQTKVDKDLQSLEDILHQVENKTSEVKQLIKAIQLTYNPDESSKPNMIDAATLKSRKMLEEIMKYEASILTHDSSIRYLQEIYNSNNQKIVNLKEKVAQLEAQCQEPCKDTVQIHDITGKDCQDIANKGAKQSGLYFIKPLKANQQFLVYCEIDGSGNGWTVFQKRLDGSVDFKKNWIQYKEGFGHLSPTGTTEFWLGNEKIHLISTQSAIPYALRVELEDWNGRTSTADYAMFKVGPEADKYRLTYAYFAGGDAGDAFDGFDFGDDPSDKFFTSHNGMQFSTWDNDNDKFEGNCAEQDGSGWWMNKCHAGHLNGVYYQGGTYSKASTPNGYDNGIIWATWKTRWYSMKKTTMKIIPFNRLTIGEGQQHHLGGAK
modifications: not checked
For B3, the Kd was 9 µM in test [7], over 1000 µM in test [11] and over 2 µM in test [8].

B4: fibrinogen E-fragment (domain or fragment)
chain 1: VVERHQSACKDSDWPFCSDEDWNYKCPSGCRMKGLIDEVNQDFTNRINKLKNSLFEYQK
chain 2: KVERKAPDAGGCLHADPDLGVLCPTGCQLQEALLQQERPIRNSVDELNNNVEAVSQTSSSSFQYMYLLK
chain 3: YVATRDNCCILDERFGSYCPTTCGIADFLSTYQTKVDKDLQSLEDILHQVENK
As to B4, the figures for the Kd in test [9] and in test [10] were 51 µM and over 20 µM, respectively.

The values are drawn from article PMC7901536 (Arteriosclerosis, thrombosis, and vascular biology, 2021).
